Earlier results in patent publication US20230301999A1, “METHODS OF TREATING GOUT” (Horizon Therapeutics USA, Inc., priority 2020, published 2023).
Like-named read-outs stand apart in the source and are kept apart here.

Key:
[1] = tested on: patients with gout; settings: patients treated with allopurinol
[2] = tested on: patients with refractory chronic gout; settings: bi-weekly or every 4 weeks for up to 30 months
[3] = tested on: hyperuricemic patients with symptomatic gout
[4] = single IV infusions of 0.5 mg to 12 mg; 23 patients with symptomatic gout
[5] = tested on: patients receiving pegloticase
[6] = tested on: subjects with refractory gout; settings: doses of 4 to 12 mg; from 11.1±0.6 mg/dL
[7] = tested on: vacuolated cells; settings: no associated clinical manifestations
[8] = rat; during 7 days after injection
[9] = tested on: patients with refractory chronic gout; settings: Phase 2 program
[10] = 2 hemodialysis sessions; pre- and post-dialyzer samples
[11] = tested on: subjects with gout; settings: Phase 2, 30-min administration in the majority

Oc1ncnc2[nH]ncc12 [allopurinol]
patients developing allergic reactions [1]: Approximately 2%

pegloticase
long-term safety [2]: No new safety signals were observed | subjects with infusion reactions (IRs) ([3]; 8 mg every 2 weeks, Phase 3, 120-min infusion, IR prophylaxis, no pre-infusion uric acid monitoring): 26% | subjects with infusion-related reactions ([3]; 8 mg every 4 weeks, Phase 3): 40% | patients maintaining therapeutic response ([3]; 6 months, pegloticase alone, previously reported): 42% | patients with IRs in whom loss of response (SUA≥6 mg/dL) preceded the first IR ([3]; 20/21 patients): 95% | subjects with anaphylaxis ([3]; Phase 3, 120-min infusion, IR prophylaxis): 5% | IR rate ([3]; clinical practice/studies with a uric acid monitoring protocol): about 8% | maximum serum concentrations vs dose [4]: increased in proportion to the dose administered | patients with antibody titer exceeding 1:2430 maintaining response ([5]; 7 of 65, another study): 10.8% | patients with titers exceeding 1:2430 developing IRs ([5]; 31 of 52): 60% | patients never having antibody titer above 1:2430 maintaining response ([5]; 58/65, another study): 89.2% | participants with high titers developing IR ([5]; second study): 60% | stability diluted in infusion bags (2° C. to 8° C.): 4 h | stability diluted in infusion bags (room temperature (20° C. to 25° C.)): 4 h | pUAc after fall, mean±SD [6]: 1.0±0.5 mg/dL | finding in chronic toxicology studies [7]: dose-dependent increase in vacuolated cells | dose excreted in the urine [8]: Approximately 70% | dose-response plateau dose [9]: 12 mg | minimally effective dose [9]: 4 mg | safe and optimally effective dose [9]: 8 mg | removal by dialysis [10]: not removed by the dialysis process | anaphylaxis [11]: no subjects experienced anaphylaxis | subjects experiencing an IR ([11]; no MTX, majority without IR prophylaxis): 44%
